This assay deals with T1, 6XHis-tagged TgIST-R2 (G365-S420).
T1 chain: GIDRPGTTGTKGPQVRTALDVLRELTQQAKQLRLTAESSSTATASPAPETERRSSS
The experiment in a line: nickel affinity copurification, SDS-PAGE, Coomassie blue band quantification. The settings on record: chain shown with the change;; parent: est. 1.0; read off a plot.

Where a chain is given by its changes, count along the chain named. In names and notes the source's numbering stands.

B1: STAT1cc (STAT1 core fragment, A656C and N658C, locked dimer), tag-free, P42224 E618A (protein)
chain: MSQWYELQQLDSKFLEQVHQLYDDSFPMEIRQYLAQWLEKQDWEHAANDVSFATIRFHDLLSQLDDQYSRFSLENNFLLQHNIRKSKRNLQDNFQEDPIQMSMIIYSCLKEERKILENAQRFNQAQSGNIQSTVMLDKQKELDSKVRNVKDKVMCIEHEIKSLEDLQDEYDFKCKTLQNREHETNGVAKSDQKQEQLLLKKMYLMLDNKRKEVVHKIIELLNVTELTQNALINDELVEWKRRQQSACIGGPPNACLDQLQNWFTIVAESLQQVRQQLKKLEELEQKYTYEHDPITKNKQVLWDRTFSLFQQLIQSSFVVERQPCMPTHPQRPLVLKTGVQFTVKLRLLVKLQELNYNLKVKVLFDKDVNERNTVKGFRKFNILGTHTKVMNMEESTNGSLAAEFRHLQLKEQKNAGTRTNEGPLIVTEELHSLSFETQLCQPGLVIDLETTSLPVVVISNVSQLPSGWASILWYNMLVAEPRNLSFFLTPPCARWAQLSEVLSWQFSSVTKRGLNVDQLNMLGEKLLGPNASPDGLIPWTRFCKENINDKNFPFWLWIESILELIKKHLLPLWNDGCIMGFISKERERALLKDQQPGTFLLRFSESSREGAITFTWVARSQNGGEPDFHAVEPYTKKELSAVTFPDIIRNYKVMAAENIPENPLKYLYPNIDKDHAFGKYYSRPKEAPEPMELDGPKGTGYIKTELISVSEVHPSRLQTTDNLLPMSPEEFDEVSRIVGSVEFDSMMNTV
Turning to B1, the ratio to parent turned out to be 0.82.

B2: STAT1cc (STAT1 core fragment, A656C and N658C, locked dimer), tag-free, P42224 R619A (protein)
chain: B1 chain with A618E, R619A
For B2, the ratio to parent stood at 0.62.

B3: STAT1cc (STAT1 core fragment, A656C and N658C, locked dimer), tag-free, P42224 E657A (protein)
chain: B1 chain with A618E, E657A
On to B3, for which the ratio to parent worked out at 0.71.

B4: STAT1cc (STAT1 core fragment, A656C and N658C, locked dimer), tag-free, P42224 Q621W (protein)
chain: B1 chain with A618E, Q621W
As for B4, the ratio to parent amounted to 1.1.

B5: STAT1cc (STAT1 core fragment, A656C and N658C, locked dimer), tag-free, P42224 E625A (protein)
chain: B1 chain with A618E, E625A
B5: the ratio to parent is 0.75.

B6: STAT1cc (STAT1 core fragment, A656C and N658C, locked dimer), tag-free, P42224 D674A (protein)
chain: B1 chain with A618E, D674A
On to B6, for which the ratio to parent was 0.9.

B7: STAT1cc (STAT1 core fragment, A656C and N658C, locked dimer), tag-free, P42224 K652A (protein)
chain: B1 chain with A618E, K652A
With B7, the ratio to parent is 0.4.

B8: STAT1cc (STAT1 core fragment, A656C and N658C, locked dimer), tag-free, P42224 Q621A (protein)
chain: B1 chain with A618E, Q621A
Take B8: the ratio to parent came to 0.87.

B9: STAT1cc (STAT1 core fragment, A656C and N658C, locked dimer), tag-free, P42224 E632A (protein)
chain: B1 chain with A618E, E632A
Consider B9, for which the ratio to parent was determined as 0.57.

B10: STAT1cc (STAT1 core fragment, A656C and N658C, locked dimer), tag-free, P42224 N622A (protein)
chain: B1 chain with A618E, N622A
In the case of B10, the ratio to parent was 0.71.

B11: STAT1cc (STAT1 core fragment, A656C and N658C, locked dimer), tag-free, P42224 N662K (protein)
chain: B1 chain with A618E, N662K
Regarding B11, the ratio to parent is 0.26.

B12: STAT1cc (STAT1 core fragment, A656C and N658C, locked dimer), tag-free, P42224 S620A (protein)
chain: B1 chain with A618E, S620A
Regarding B12, the ratio to parent came out at 0.8.

B13: STAT1cc (STAT1 core fragment, A656C and N658C, locked dimer), tag-free, P42224 Q594A (protein)
chain: B1 chain with Q594A, A618E
For B13, the ratio to parent was 0.79.

B14: STAT1cc (STAT1 core fragment, A656C and N658C, locked dimer), tag-free, P42224 D672A (protein)
chain: B1 chain with A618E, D672A
For B14, the ratio to parent was found to be 0.93.

B15: STAT1cc (STAT1 core fragment, A656C and N658C, locked dimer), tag-free, P42224 D593A (protein)
chain: B1 chain with D593A, A618E
For B15, the ratio to parent stood at 0.9.

B16: STAT1cc (STAT1 core fragment, A656C and N658C, locked dimer), tag-free, P42224 M654A (protein)
chain: STVMLDKQKELDSKVRNVKDKVMCIEHEIKSLEDLQDEYDFKCKTLQNREHETNGVAKSDQKQEQLLLKKMYLMLDNKRKEVVHKIIELLNVTELTQNALINDELVEWKRRQQSACIGGPPNACLDQLQNWFTIVAESLQQVRQQLKKLEELEQKYTYEHDPITKNKQVLWDRTFSLFQQLIQSSFVVERQPCMPTHPQRPLVLKTGVQFTVKLRLLVKLQELNYNLKVKVLFDKDVNERNTVKGFRKFNILGTHTKVMNMEESTNGSLAAEFRHLQLKEQKNAGTRTNEGPLIVTEELHSLSFETQLCQPGLVIDLETTSLPVVVISNVSQLPSGWASILWYNMLVAEPRNLSFFLTPPCARWAQLSEVLSWQFSSVTKRGLNVDQLNMLGEKLLGPNASPDGLIPWTRFCKENINDKNFPFWLWIESILELIKKHLLPLWNDGCIMGFISKERERALLKDQQPGTFLLRFSESSREGAITFTWVERSQNGGEPDFHAVEPYTKKELSAVTFPDIIRNYKVAACECIPENPLKYLYPNIDKDHAFGKYYSRPKEAPEPMELDGPKGTGYIKTELISVSEVH
Regarding B16, the ratio to parent is 0.04.

B17: STAT1cc (STAT1 core fragment, A656C and N658C, locked dimer), tag-free, P42224 D627A (protein)
chain: B16 chain with D496A, A523M
Consider B17, for which the ratio to parent is 0.04.

B18: STAT1cc (STAT1 core fragment, A656C and N658C, locked dimer), tag-free, P42224 E661A (protein)
chain: B16 chain with A523M, E530A
In the case of B18, the ratio to parent is 0.61.

The values above are taken from paper PMC9279507.
